The target in assay [1] is FcεRI alpha chain on CHO 3D10 cells (UniProt P12319). In words: FACS, CHO 3D10 cells, 0.5 ug/ml. In general terms: Flow cytometry measures light scatter and fluorescence of single cells or particles in a stream.
Assay [2] addresses FcεRII (CD23) on IM9 B cells (human) (UniProt P06734). Briefly: FACS, IM9 cells, 0.1 ug/ml.
Assay [3] deals with FcεRI alpha chain on CHO 3D10 cells (UniProt P12319). Briefly: FACS, CHO 3D10 cells, 5 ug/ml.
The target is the same in assay [4]. In words: FACS, CHO 3D10 cells, 0.1 ug/ml.
For assay [5], the target named is FcεRII (CD23) on IM9 B cells (human) (UniProt P06734). Briefly: FACS, IM9 cells, 10 ug/ml.
Assay [6] shares this target. In words: FACS, IM9 cells, 5 ug/ml.
Assay [7] deals with FcεRI alpha chain on CHO 3D10 cells (UniProt P12319). In words: FACS, CHO 3D10 cells, 10 ug/ml.

Chain of FcεRII (CD23) on IM9 B cells (human) (P06734 whole entry): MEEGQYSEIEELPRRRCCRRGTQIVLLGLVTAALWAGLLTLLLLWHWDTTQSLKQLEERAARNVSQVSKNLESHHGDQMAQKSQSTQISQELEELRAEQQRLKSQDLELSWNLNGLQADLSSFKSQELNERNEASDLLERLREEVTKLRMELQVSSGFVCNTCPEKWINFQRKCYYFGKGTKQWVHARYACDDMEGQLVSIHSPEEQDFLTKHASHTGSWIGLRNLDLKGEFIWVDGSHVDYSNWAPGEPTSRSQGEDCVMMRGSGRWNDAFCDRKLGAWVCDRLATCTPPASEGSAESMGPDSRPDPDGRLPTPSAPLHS
Chain of FcεRI alpha chain on CHO 3D10 cells (P12319 26-257 limits assumed): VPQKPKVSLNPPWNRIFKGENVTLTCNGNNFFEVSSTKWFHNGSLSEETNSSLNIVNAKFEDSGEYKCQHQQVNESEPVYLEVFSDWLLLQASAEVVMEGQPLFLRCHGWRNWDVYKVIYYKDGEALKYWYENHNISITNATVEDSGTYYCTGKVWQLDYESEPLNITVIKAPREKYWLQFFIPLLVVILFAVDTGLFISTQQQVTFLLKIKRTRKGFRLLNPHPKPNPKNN

In the case of “human IgE purified from U266B1 cells (from UniProt P01854 1-428) (antibody)”, the % CHO 3D10(+) in assay [1] was 59.6%; in assay [3], 89.9%; in assay [4] it was 15.8%; in assay [7] it was 90.3%. Further, the figures for the % IM9 (+) in assay [2], in assay [5] and in assay [6] were 1.7%, 92.5% and 82.6%, respectively.

Values taken from patent US20070020258A1.
